Source: paper PMC2064105 (The Journal of Cell Biology, 2007)

Target: T1, purified recombinant Kap121p (S. cerevisiae, UniProt P32337 1-1089)
T1 sequence (looked up): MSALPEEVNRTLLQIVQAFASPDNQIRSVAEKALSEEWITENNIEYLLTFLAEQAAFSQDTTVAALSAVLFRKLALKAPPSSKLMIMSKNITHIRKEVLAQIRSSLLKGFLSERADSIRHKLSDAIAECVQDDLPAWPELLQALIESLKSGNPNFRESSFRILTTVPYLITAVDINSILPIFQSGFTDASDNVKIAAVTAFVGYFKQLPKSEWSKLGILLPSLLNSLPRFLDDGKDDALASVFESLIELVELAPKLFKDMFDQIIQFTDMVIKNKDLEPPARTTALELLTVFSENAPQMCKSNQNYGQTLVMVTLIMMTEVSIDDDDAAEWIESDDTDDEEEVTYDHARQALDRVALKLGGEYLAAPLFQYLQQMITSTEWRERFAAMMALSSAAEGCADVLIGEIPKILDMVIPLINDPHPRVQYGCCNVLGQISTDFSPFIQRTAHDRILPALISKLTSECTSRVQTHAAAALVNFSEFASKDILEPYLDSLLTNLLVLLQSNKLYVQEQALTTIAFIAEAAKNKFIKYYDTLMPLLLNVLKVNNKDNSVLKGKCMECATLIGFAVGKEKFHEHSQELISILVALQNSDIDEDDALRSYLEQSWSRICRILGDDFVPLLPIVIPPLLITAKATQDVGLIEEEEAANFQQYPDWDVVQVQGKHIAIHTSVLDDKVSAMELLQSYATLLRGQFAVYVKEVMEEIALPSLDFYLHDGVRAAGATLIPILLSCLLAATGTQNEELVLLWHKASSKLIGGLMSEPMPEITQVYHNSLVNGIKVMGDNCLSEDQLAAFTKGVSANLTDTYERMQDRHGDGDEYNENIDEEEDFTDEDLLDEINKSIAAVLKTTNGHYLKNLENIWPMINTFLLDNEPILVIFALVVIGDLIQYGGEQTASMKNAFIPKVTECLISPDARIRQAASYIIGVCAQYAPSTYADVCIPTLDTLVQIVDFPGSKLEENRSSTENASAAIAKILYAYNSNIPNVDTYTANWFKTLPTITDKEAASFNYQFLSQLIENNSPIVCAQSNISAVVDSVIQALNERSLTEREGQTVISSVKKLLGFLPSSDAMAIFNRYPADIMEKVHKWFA
Assay: pull-down

binding result: binds
B1: purified recombinant Nup53p (natural protein, S. cerevisiae, UniProt Q03790 1-475, looked up)
chain: MADLQKQENSSRFTNVSVIAPESQGQHEQQKQQEQLEQQKQPTGLLKGLNGFPSAPQPLFMEDPPSTVSGELNDNPAWFNNPRKRAIPNSIIKRSNGQSLSPVRSDSADVPAFSNSNGFNNVTFGSKKDPRILKNVSPNDNNSANNNAHSSDLGTVVFDSNEAPPKTSLADWQKEDGIFSSKTDNIEDPNLSSNITFDGKPTATPSPFRPLEKTSRILNFFDKNTKTTPNTASSEASAGSKEGASTNWDDHAIIIFGYPETIANSIILHFANFGEILEDFRVIKDFKKLNSKNMSKSPSLTAQKYPIYTGDGWVKLTYKSELSKSRALQENGIIMNGTLIGCVSYSPAALKQLASLKKSEEIINNKTSSQTSLSSKDLSNYRKTEGIFEKAKAKAVTSKVRNAEFKVSKNSTSFKNPRRLEIKDGRSLFLRNRGKIHSGVLSSIESDLKKREQASKSKKSWLNRLNNWLFGWNDL
